Laboratory results taken from PMC3950705.

T1: hRev1 330-833 (core polymerase domain) (human, UniProt Q9UBZ9 330-833)
T1 sequence: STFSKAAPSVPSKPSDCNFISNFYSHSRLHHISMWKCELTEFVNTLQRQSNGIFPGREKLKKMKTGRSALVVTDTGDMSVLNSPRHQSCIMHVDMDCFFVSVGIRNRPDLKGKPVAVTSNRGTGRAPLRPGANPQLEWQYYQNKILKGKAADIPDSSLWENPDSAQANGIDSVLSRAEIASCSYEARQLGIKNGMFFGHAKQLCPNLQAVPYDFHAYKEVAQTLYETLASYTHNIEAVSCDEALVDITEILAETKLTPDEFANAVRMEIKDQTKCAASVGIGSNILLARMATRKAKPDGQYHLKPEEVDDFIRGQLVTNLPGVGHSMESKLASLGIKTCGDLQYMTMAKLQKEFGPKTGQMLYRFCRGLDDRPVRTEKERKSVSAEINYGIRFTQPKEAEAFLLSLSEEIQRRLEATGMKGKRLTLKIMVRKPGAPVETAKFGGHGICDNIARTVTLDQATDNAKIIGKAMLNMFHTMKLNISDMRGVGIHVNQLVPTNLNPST


How the values were obtained:
[1] = molecular target: T1, hRev1 330-833 (core polymerase domain); assay: fluorescence polarization
[2] = molecular target: T1, hRev1 330-833 (core polymerase domain); assay: stopped-flow fluorescence quenching
[3] = molecular target: T1, hRev1 330-833 (core polymerase domain); assay: DMS footprinting
[4] = molecular target: T1, hRev1 330-833 (core polymerase domain); assay: stopped-flow fluorescence quenching; remark: listed apart in the source

Binder | Kd [1] [nM] | also measured
TGGGTGGGTAGGGTGGGTAGGGGAGGAT (structured_DNA) [ss-G4 DNA 28-mer] | 15.7 ± 8.7 | –
TATGTGACTATGCTGGGTAGGGGAGGAT (ssDNA) [ss-non-G4 DNA 28-mer] | 65.7 ± 8.8 | –
FAM/Dab 18/42-mer G4 DNA (mixed) DNA 1: TGAGGGTGGGTAGGGTGGGTGCGTCTGCGGCTGGCTCGAGGC DNA 2: GCCTCGAGCCAGCCGCAG | – | binding result [2]: binds
11/28-mer primer-template G4 DNA (mixed) DNA 1: TGGGTGGGTAGGGTGGGTAGGGGAGGAT DNA 2: ATCCTCCCCTA | 8.4 ± 2.5 | –
11/28-mer primer-template non-G4 DNA (mixed) DNA 1: TATGTGACTATGCTGGGTAGGGGAGGAT DNA 2: ATCCTCCCCTA | 129 ± 20 | –
23/42-mer Myc2345 G14/23T primer-template (mixed) DNA 1: TGAGGGTGGGTAGGGTGGGTGCGTCTGCGGCTGGCTCGAGGC DNA 2: GCCTCGAGCCAGCCGCAGACGCA | – | binding result [3]: binds
TGAGGGTGGGTAGGGTGGGTGCGTCTGCGGCTGGCTCGAGGC (structured_DNA) [FAM/Dab 42-mer ss-G4 DNA (Myc2345 G14/23T)] | – | binding result [4]: binds
